Data: publication PMC4877109, “Structure of the Cellulose Synthase Complex of Gluconacetobacter hansenii at 23.4 Å Resolution” (PLoS ONE, 2016)

Columns and labels:
[1] = target: T1, AcsAB complex (AcsA + AcsB, cellulose synthase) (Novacetimonas hansenii, UniProt Q76KJ8); assay: UDP-14C-glucose incorporation with and without c-di-GMP; assay type: biochemical; details: allosteric activator (30 μM); 20 mM MgCl2, 2 mM UDP-glucose, pH 7.5, 30 °C
T1 construct: acsAB fusion polypeptide with N-terminal His12 tag, processed in vivo into AcsA (83 kDa) and AcsB (93 kDa); homologous expression in G. hansenii (pUCD2CDHisAcsAB with acsCD); LFCE14 detergent, Co-NTA and size exclusion; ~180 kDa monomeric complex
T1 sequence (Q76KJ8 742-1550, one chain of several): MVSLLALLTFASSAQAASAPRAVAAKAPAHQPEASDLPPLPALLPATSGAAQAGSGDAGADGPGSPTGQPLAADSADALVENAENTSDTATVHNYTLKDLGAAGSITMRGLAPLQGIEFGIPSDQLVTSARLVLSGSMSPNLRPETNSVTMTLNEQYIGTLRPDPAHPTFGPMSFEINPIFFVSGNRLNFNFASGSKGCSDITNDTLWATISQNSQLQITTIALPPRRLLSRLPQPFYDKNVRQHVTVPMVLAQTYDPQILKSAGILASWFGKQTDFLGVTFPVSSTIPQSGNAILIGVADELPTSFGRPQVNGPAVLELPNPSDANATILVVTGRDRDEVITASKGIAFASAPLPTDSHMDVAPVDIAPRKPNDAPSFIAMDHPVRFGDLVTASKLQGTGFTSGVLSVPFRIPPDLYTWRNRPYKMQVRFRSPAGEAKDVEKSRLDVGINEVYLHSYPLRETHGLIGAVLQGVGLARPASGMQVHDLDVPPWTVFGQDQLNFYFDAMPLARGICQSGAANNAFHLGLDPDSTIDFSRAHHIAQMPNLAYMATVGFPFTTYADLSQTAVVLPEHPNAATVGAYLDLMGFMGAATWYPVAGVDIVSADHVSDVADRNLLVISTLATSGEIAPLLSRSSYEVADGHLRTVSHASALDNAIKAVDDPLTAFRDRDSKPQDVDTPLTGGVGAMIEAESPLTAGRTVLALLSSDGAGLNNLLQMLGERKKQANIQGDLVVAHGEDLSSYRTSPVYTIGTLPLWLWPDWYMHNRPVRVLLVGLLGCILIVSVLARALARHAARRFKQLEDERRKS

[2] = substrate: O=c1ccn([C@@H]2O[C@H](CO[P@@](=O)(O)O[P@@](=O)(O)O[C@H]3O[C@H](CO)[C@@H](O)[C@H](O)[C@H]3O)[C@@H](O)[C@H]2O)c(=O)[nH]1; assay: UDP-14C-glucose incorporation into insoluble glucan, scintillation counting, Michaelis-Menten fit; assay type: biochemical, Novacetimonas hansenii; details: Mg2+ 20 mM, 30 μM c-di-GMP, 5 mM cellobiose, 20 mM Tris-HCl pH 7.5, 100 mM NaCl, 30 °C, LFCE14 detergent-purified complex, labelled compound as tracer

| Molecule | UDP-14C-glucose incorporation with and without c-di-GMP [1] | Km [2] | kcat [2] |
| --- | --- | --- | --- |
| Nc1nc2c(ncn2[C@@H]2O[C@@H]3COP(=O)(O)O[C@H]4[C@@H](O)[C@H](n5cnc6c(=O)[nH]c(N)nc65)O[C@@H]4COP(=O)(O)O[C@H]3[C@H]2O)c(=O)[nH]1 [c-di-GMP] | when c-di-GMP was omitted, the protein was not able to catalyze label incorporation into cellulose |  |  |
| AcsAB complex (AcsA + AcsB, cellulose synthase) (Novacetimonas hansenii) (protein, acsAB fusion polypeptide with N-terminal His12 tag, processed in vivo into AcsA (83 kDa) and AcsB (93 kDa); homologous expression in G. hansenii (pUCD2CDHisAcsAB with acsCD); LFCE14 detergent, Co-NTA and size exclusion; ~180 kDa monomeric complex) MPEVRSSTQSESGMSQWMGKILSIRGAGLIIGVFGLCALIAATSVTLPPEQQLIVAFVCVVIFFIVGHKPSRRSQIFLEVLSGLVSLRYLTWRLTETLSFDTWLQGLLGTMLLVAELYALMMLFLSYFQTIAPLHRAPLPLPPNPDEWPTVDIFVPTYNEELSIVRLTVLGSLGIDWPPEKVRVHILDDGRRPEFAAFAAECGANYIARPTNEHAKAGNLNYAIGHTDGDYILIFDCDHVPTRAFLQLTMGWMVEDPKIALMQTPHHFYSPDPFQRNLSAGYRTPPEGNLFYGVVQDGNDFWDATFFCGSCAILRRTAIEQIGGFATQTVTEDAHTALKMQRLGWSTAYLRIPLAGGLATERLILHIGQRVRWARGMLQIFRIDNPLFGRGLSWGQRLCYLSAMTSFLFAVPRVIFLSSPLAFLFFGQNIIAASPLALLAYAIPHMFHAVGTASKINKGWRYSFWSEVYETTMALFLVRVTIVTLLSPSRGKFNVTDKGGLLEKGYFDLGAVYPNIILGLIMFGGLARGVYELSFGHLDQIAERAYLLNSAWAMLSLIIILAAIAVGRETQQKRNSHRIPATIPVEVANADGSIIVTGVTEDLSMGGAAVKMSWPAKLSGPTPVYIRTVLDGEELILPARIIRAGNGRGIFIWTIDNLQQEFSVIRLVFGRADAWVDWGNYKADRPLLSLMDMVLSVKGLFRSSGDIVHRSSPTKPSAGNALSDDTNNPSRKERVLKGTVK |  | 0.12 (± 0.03) mM | 2.9 molecules per complex per second |
